Source: US20210363269A1 (ALX ONCOLOGY, published 2021)

Columns and labels:
[1] = target: T1, human SIRP-α v1 (human, UniProt P78324 31-149); test: SPR, antibody on GLC chip
T1 construct: also called Human v1; Human V1
Procedure, shortened: (§1)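 SIRP analytes were run over antibody surfaces in PBS pH 7.4 with 0.01% Tween-20 at 25° C, using one-shot injections at 100, 33, 11, 3.7, 1.2 and 0 nM. The antibodies, purified by Protein A, had been amine-coupled (~1000 RU) to a GLC chip of a ProteOn XPR36 biosensor from an 80 nM solution in 10 mM sodium acetate pH 4.5. Association lasted 90 s at a flow of 100 μL/min, and dissociation lasted 1200 s. KD equals kd/ka, obtained by fitting double-referenced data globally to a Langmuir model.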

[2] = target: T2, BL6 mouse SIRP-α (mouse (C57BL/6 strain), UniProt P97797 32-148); test: SPR, antibody on GLC chip
T2 construct: also called C57BL/6
T2 sequence: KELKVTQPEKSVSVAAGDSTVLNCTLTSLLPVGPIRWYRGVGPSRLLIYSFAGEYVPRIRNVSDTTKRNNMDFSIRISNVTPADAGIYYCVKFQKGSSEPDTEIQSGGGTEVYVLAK
Procedure, shortened: as §1

[3] = target: T3, human SIRPγ isoform 1 (human, UniProt Q9P1W8 29-147); test: SPR, antibody on GLC chip
T3 construct: also called Gamma; Human SIRPg
Procedure, shortened: as §1
T3 sequence (Q9P1W8 29-147 limits assumed): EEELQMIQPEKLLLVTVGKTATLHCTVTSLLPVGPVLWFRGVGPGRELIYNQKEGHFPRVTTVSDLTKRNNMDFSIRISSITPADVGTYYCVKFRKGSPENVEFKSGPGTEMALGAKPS

[4] = target: T4, human SIRP-α v2 (human); test: SPR, antibody on GLC chip
T4 construct: also called Human v2; Human V2
Procedure, shortened: as §1

[5] = target: T5, BALBc mouse SIRP-α (mouse (BALB/c strain)); test: SPR, antibody on GLC chip
T5 chain: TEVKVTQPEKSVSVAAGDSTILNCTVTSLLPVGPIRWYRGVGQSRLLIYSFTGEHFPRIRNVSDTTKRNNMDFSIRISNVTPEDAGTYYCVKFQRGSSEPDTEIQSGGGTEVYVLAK
Procedure, shortened: as §1

[6] = target: T6, human SIRPβ isoform 1 (human, UniProt O00241 30-148); test: SPR, antibody on GLC chip
T6 construct: also called Beta; Human SIRPb
Procedure, shortened: as §1

[7] = target: T7, cynomolgus SIRP-α (cynomolgus monkey, UniProt Q5TFQ8 30-148 (human entry), limits assumed); test: SPR, antibody on GLC chip
T7 construct: also called cyno1
T7 chain: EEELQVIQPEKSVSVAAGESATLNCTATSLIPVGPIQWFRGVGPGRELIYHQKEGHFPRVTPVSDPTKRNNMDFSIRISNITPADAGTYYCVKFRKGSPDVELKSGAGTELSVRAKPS
Procedure, shortened: as §1

[8] = target: T8, mouse 129 SIRP-α (mouse (129 strain), UniProt P97797 32-150); test: SPR Koff +/-
T8 construct: also called m129
T8 chain: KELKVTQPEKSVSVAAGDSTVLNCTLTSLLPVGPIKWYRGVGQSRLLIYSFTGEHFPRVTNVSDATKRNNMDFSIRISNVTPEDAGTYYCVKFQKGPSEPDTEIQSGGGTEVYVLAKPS
Procedure, shortened: (§2)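 SIRP analytes at nominal, A280-based concentrations were injected in one-shot kinetic mode over purified antibodies that were amine-coupled to a GLC chip or captured by biotinylated Protein A on an NLC chip of a ProteOn XPR36. All runs were at 25° C in PBS pH 7.4 with 0.01% Tween-20. Apparent ka and kd came from a global simple Langmuir fit of double-referenced data, with KD as their ratio kd/ka.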

[9] = target: T1, human SIRP-α v1; test: SPR
Procedure, shortened: as §2

[10] = target: T4, human SIRP-α v2; test: SPR
Procedure, shortened: as §2

[11] = target: T9, NOD mouse SIRP-α (mouse (NOD strain)); test: SPR, antibody on GLC chip
T9 chain: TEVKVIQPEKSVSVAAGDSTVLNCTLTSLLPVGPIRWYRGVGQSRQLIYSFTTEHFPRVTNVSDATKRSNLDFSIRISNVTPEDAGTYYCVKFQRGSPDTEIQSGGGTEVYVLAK
Procedure, shortened: as §1

[12] = target: T1, human SIRP-α v1; test: SPR; remark: listed apart in the source
Procedure, shortened: as §2

[13] = target: T9, NOD mouse SIRP-α; test: SPR
Procedure, shortened: as §2

[14] = target: T5, BALBc mouse SIRP-α; test: SPR
Procedure, shortened: as §2

[15] = target: T10, human SIRP-α v1 D1 domain (human, UniProt P78324 31-149); test: SPR, antibody immobilised on GLC chip
T10 construct: also called human v1; human α v1
Method: (§3) All experiments were performed at 25° C. using a SPR-based ProteOn XPR36 biosensor (BioRad, Inc, Hercules, Calif.) equipped with GLC or NLC sensor chips. […] Purification was carried out by standard Protein A affinity column chromatography and eluted antibodies were stored in PBS buffer.
(§4) For the method using GLC chip, the analytes were injected and flowed over anti-SIRPα antibodies immobilized (˜1000 RUs) on GLC chips using Proteon™ Amine Coupling Kit. For the immobilization step, GLC chip was activated with EDAC/Sulpho-NHS 1:1 (Biorad) diluted 1/100 for 300 s at 25 μL/min. Anti-SIRPα antibodies were diluted to 80 nM concentration in 10 mM sodium acetate buffer pH 4.5 and immobilized to the chip at 30 μL/min for 50 s. Chip was inactivated with ethanolamine for 300 s at 25 μL/min. The analytes (e.g., SIRP-α from different species, SIRP-β, SIRP-γ) were injected in a “one-shot” kinetic mode at nominal concentrations of 100, 33, 11, 3.7, 1.2 and 0 nM. Association times were monitored for 90 s at 100 μL/min, and dissociation times were monitored for 1200 s. The surfaces were regenerated with a 2:1 v/v blend of Pierce IgG elution buffer/4M NaCl. […]

[16] = target: T11, C57BL/6 mouse SIRP-α D1 domain (mouse (C57BL/6 strain), UniProt P97797 32-148); test: SPR, antibody immobilised on GLC chip
T11 sequence: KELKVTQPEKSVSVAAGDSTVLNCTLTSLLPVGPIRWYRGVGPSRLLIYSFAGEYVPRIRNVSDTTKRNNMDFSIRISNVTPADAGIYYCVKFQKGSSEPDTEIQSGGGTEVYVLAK
Method: as §3, §4

[17] = target: T12, NOD mouse SIRP-α D1 domain (mouse (NOD strain)); test: SPR, antibody immobilised on GLC chip
T12 chain: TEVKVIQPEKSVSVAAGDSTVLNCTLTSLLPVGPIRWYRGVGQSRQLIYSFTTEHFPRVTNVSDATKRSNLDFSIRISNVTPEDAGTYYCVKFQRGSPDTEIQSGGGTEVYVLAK
Method: as §3, §4

[18] = target: T13, human SIRPγ isoform 1 (human, UniProt Q9P1W8 29-147); test: SPR, antibody immobilised on GLC chip
T13 construct: also called sirpg; sirp-g
Method: as §3, §4
T13 sequence (Q9P1W8 29-147 limits assumed): as the sequence (Q9P1W8 29-147 limits assumed) above

[19] = target: T14, BALB/c mouse SIRP-α D1 domain (mouse (BALB/c strain)); test: SPR, antibody immobilised on GLC chip
T14 chain: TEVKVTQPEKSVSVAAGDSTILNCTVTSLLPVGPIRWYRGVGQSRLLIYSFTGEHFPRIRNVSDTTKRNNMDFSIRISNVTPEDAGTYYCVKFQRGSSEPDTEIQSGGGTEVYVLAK
Method: as §3, §4

[20] = target: T15, human SIRP-α v2 D1 domain (human); test: SPR, antibody immobilised on GLC chip
T15 construct: also called human v2; human α v2
Method: as §3, §4

T4 sequence (chain, as listed by the source limits assumed): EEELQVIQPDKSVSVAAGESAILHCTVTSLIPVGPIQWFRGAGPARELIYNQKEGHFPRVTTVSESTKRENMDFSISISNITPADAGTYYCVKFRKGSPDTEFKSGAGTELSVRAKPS
T1 sequence (P78324 31-149 limits assumed): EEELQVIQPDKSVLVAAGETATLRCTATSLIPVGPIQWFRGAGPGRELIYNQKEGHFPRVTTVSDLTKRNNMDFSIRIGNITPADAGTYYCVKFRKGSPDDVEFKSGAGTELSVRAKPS
T6 sequence (O00241 30-148 limits assumed): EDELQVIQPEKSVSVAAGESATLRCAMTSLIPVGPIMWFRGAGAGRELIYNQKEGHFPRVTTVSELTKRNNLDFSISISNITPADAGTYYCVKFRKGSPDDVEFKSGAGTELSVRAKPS
T15 sequence (chain, as listed by the source limits assumed): as the sequence (chain, as listed by the source limits assumed) above
T10 sequence (P78324 31-149 limits assumed): as the sequence (P78324 31-149 limits assumed) above

| Binder | Kd [1] | binding result [2] | Kd [3] | Kd [4] | binding result [5] | Kd [6] | Kd [7] | binding result [11] | also measured |
| --- | --- | --- | --- | --- | --- | --- | --- | --- | --- |
| antibody 119 (antibody, V domains shown, also called AB119; S119) VH: DVQLLESGGGVVQPGGSLRLSCAASGFSFSNFAMTWVRQAPGEGLEWVSTIGSGDTYYADSVKGRFTISRDNSKNTLYLQMNSLRAEDTAVYYCAKDSTVSWSGDFFDYWGLGTLVTVSS VL: EIVLTQSPATLSVSPGERATFSCRASQNVKNDLAWYQQRPGQAPRLLIYAARIRETGIPERFSGSGSGTEFTLTITSLQSEDFAVYYCQQYYDWPPFTFGGGTKVEIK | 0.183 nM | no binding | 0.267 nM | 0.0682 nM | no binding | 0.342 nM | 0.112 nM |  | binding result [8]: no binding; Kd [9]: 0.183 nM; Kd [10]: 0.0799 nM |
| antibody 135 variant, light chain wt / heavy chain Mut_V34M (antibody, V domains shown) VH: EVQLVESGGGVVQPGGSLRLSCAASGFSFSIYAMSWVRQAPGKGLEWVSTIGADDTYYADSVKGRFTISRDNSKNTLYLQMNSLRAEDTAVYYCAKDSTVGWSGDFFDYWGQGTLVTVSS VL: EIVLTQSPATLSVSPGERVTFSCRASQNVRSDIAWYQQKPGQAPRLLIYAASSRDTGIPDRFSGSGSGTDFTLTISSLQSEDFGVYYCQQYYDWPPFTFGGGTKVEIK | 0.15 nM | no binding | 0.533 nM | 0.0161 nM | no binding | 0.16 nM | 0.0794 nM | no binding |  |
| antibody 119 variant, light chain Mut / heavy chain Mut (antibody, V domains shown) VH: EVQLLESGGGVVQPGGSLRLSCAASGFSFSNFAVTWVRQAPGKGLEWVSTIGSGDTYYADSVKGRFTISRDNSKNTLYLQMNSLRAEDTAVYYCAKDSTVSWSGDFFDYWGQGTLVTVSS VL: EIVLTQSPATLSVSPGERATLSCRASQNVKNDLAWYQQKPGQAPRLLIYAARIRETGIPARFSGSGSGTEFTLTISSLQSEDFAVYYCQQYYDWPPFTFGGGTKVEIK | 0.317 nM | no binding | 0.336 nM | 0.0875 nM | no binding | 0.46 nM | 0.195 nM | no binding |  |
| antibody 135 variant, light chain Mut / heavy chain Mut (antibody, V domains shown) VH: EVQLVESGGGVVQPGGSLRLSCAASGFSFSIYAVSWVRQAPGKGLEWVSTIGADDTYYADSVKGRFTISRDNSKNTLYLQMNSLRAEDTAVYYCAKDSTVGWSGDFFDYWGQGTLVTVSS VL: EIVLTQSPATLSVSPGERVTLSCRASQNVRSDIAWYQQKPGQAPRLLIYAASSRDTGIPARFSGSGSGTDFTLTISSLQSEDFGVYYCQQYYDWPPFTFGGGTKVEIK | 0.192 nM | no binding | 0.733 nM | 0.0175 nM | no binding | 0.188 nM | 0.127 nM | no binding |  |
| antibody 119 variant, light chain Mut / heavy chain Mut_V34M (antibody, V domains shown) VH: EVQLLESGGGVVQPGGSLRLSCAASGFSFSNFAMTWVRQAPGKGLEWVSTIGSGDTYYADSVKGRFTISRDNSKNTLYLQMNSLRAEDTAVYYCAKDSTVSWSGDFFDYWGQGTLVTVSS VL: EIVLTQSPATLSVSPGERATLSCRASQNVKNDLAWYQQKPGQAPRLLIYAARIRETGIPARFSGSGSGTEFTLTISSLQSEDFAVYYCQQYYDWPPFTFGGGTKVEIK | 0.215 nM | no binding | 0.263 nM | 0.0688 nM | no binding | 0.337 nM | 0.118 nM | no binding |  |
| Hum8/AB21_HC_Mutall (antibody, V domains shown, also called Hum8/AB21mutall) VH: EVQLVESGGGVVQPGGSLRLSCAASGFTFSSNAMSWVRQAPGKGLEWVAGISAGGSDTYYPASVKGRFTISRDNSKNTLYLQMNSLRAEDTAVYYCARETWNHLFDYWGQGTLVTVSS VL: SYELTQPPSVSVSPGQTARITCSGGAYSSYYYAWYQQKPGQAPVLVIYSDSKRPSGIPERFSGSSSGTTVTLTISGVQAEDEADYYCGGYDQSSYTNPFGGGTKLTVL |  |  |  |  |  |  |  |  | Kd [12]: 0.0201 nM; Kd [13]: 27.8 nM; Kd [14]: 71.2 nM |
| antibody 136 variant Mut/mut (antibody, human IgG1, V domains shown, Human IgG1 with L234A/L235A/G237A/N297A; Labels are light chain/heavy chain) VH: EVQLVESGGGVVQPGRSLRLSCAASGFTFSSYDVNWVRQAPGKGLEWVSLISGSGEIIYYADSVKGRFTISRDNSKNTLYLQMNSLRAEDTAVYYCAKENNRYRFFDDWGQGTLVTVSS VL: EIVLTQSPGTLSLSPGERATLSCRASQSVYTYLAWYQQKPGQAPRLLIYGASSRATGIPDRFSGSGSGTEFTLTISSLQSEDFAVYYCQQYYDRPPLTFGGGTKVEIK |  |  |  |  |  |  |  |  | Kd [15]: 7.32 nM; Kd [16]: 21.6 nM; Kd [17]: 5.42 nM; Kd [18]: 28.8 nM; Kd [19]: 2.67 nM; Kd [20]: 12.7 nM |
| antibody 136 variant, light chain Mut_I2T / heavy chain Mut_V34M (antibody, V domains shown) VH: EVQLVESGGGVVQPGRSLRLSCAASGFTFSSYDMNWVRQAPGKGLEWVSLISGSGEIIYYADSVKGRFTISRDNSKNTLYLQMNSLRAEDTAVYYCAKENNRYRFFDDWGQGTLVTVSS VL: ETVLTQSPGTLSLSPGERATLSCRASQSVYTYLAWYQQKPGQAPRLLIYGASSRATGIPDRFSGSGSGTEFTLTISSLQSEDFAVYYCQQYYDRPPLTFGGGTKVEIK | 0.551 nM |  | 33.5 nM | 1.74 nM |  | 2.22 nM | 2.11 nM |  | Kd [2]: 13.8 nM; Kd [11]: 0.596 nM; Kd [5]: 0.361 nM |
